Measurements: the supplement of paper PMC10567573
± gives the standard deviation.

Test: protein stability index of a GFP-peptide fusion (GPS, HEK-293T) (PSI 1-6); higher = more stable
Conditions: c terminus: a fixed tail appended
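Note: 24-mer peptide tiles fused after GFP, lentivirally expressed, FACS-sorted into six equal bins by GFP/DsRed ratio, decoded by Illumina sequencing, PSI is the read-weighted mean bin number.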

Sequence | protein stability index (treatment: DMSO) | protein stability index (treatment: MLN4924 1 uM, 8 h)
VMVRWNKSLEWSPWNCILLTKDEA [IQUB] | 2.57 ± 1 | 2.25 ± 0.35
PLLCPSYQSYFKTIEELQQKILCS [KRT33B] | 2.56 ± 0.3 | 2.56 ± 0.17
HPLAQNERCLHMFLQEEAIDRNYV [SNX12] | 3.17 ± 0.4 | 3.18 ± 0.28
LRRKEQLWEKLAKQGELPREVRRA [NOP53] | 3.58 ± 0.18 | 3.7 ± 0.36
LFYFFLYQYCSIHCSDRKQVRNIA [CSTF3] | 2.92 ± 0.83 | 2.61 ± 0.33
YDQLKAFLCGRALTSDLYAPMVAG [SLC25A39] | 2.61 ± 0.2 | 2.04 ± 0.15
RDTTGVSQMFPSSKARTKSLLGDD [FBF1] | 4.83 ± 0.056 | 4.82 ± 0.14
PGLLSLATTSASDSLKPEQLDIEE [TFE3] | 5.35 ± 0.23 | 5.55 ± 0.17
MQENITKVIERGERLDELQDKSES [VAMP4] | 5.04 ± 0.37 | 5.05 ± 0.41
QYPGNYEQQQILIRQLQEQHYQQY [ACBD3] | 3.17 ± 0.26 | 3.24 ± 0.18
GDVMFTGTADGRVVKLENGEIETI [APMAP] | 4.73 ± 0.51 | 5.06 ± 0.29
PQELINYVQTVDFMRTDNTCVNLL [KLHL13] | 2.46 ± 0.35 | 2.51 ± 0.42
YGETCFPKGRFERKRNPSRKKQHI [ZNF24] | 2.93 ± 0.62 | 3.24 ± 0.6
SSYSLSDMVSNIELPTRIHEEVYF [MIA2] | 2.35 ± 0.39 | 2.5 ± 0.6
LIPGDAYTDYVATRWYRAPELLVG [CDKL4] | 2.18 ± 0.22 | 2.18 ± 0.071
PMPVSQECFETLRGDERILSILRH [CHGA] | 3.29 ± 0.23 | 3.02 ± 0.46
LKECLKKQLEFCFSRENLSKDLYL [LARP4] |  | 2.67 ± 0.89
TAERITQLSAPHCKKLSLELGGKN [ALDH8A1] | 3.75 ± 0.21 | 3.98 ± 0.19
ADSVITVGRGEVVTVRVPTHEEGS [ACBD3] | 4.88 ± 0.2 | 4.88 ± 0.16
LELGSTEVLLDHLKAHAEEKPPSG [PLAGL1] | 4.46 ± 0.28 | 4.94 ± 0.2
ILRAIGKGSFGKVCIVQKNDTKKM [STK32A] | 2.4 ± 0.45 | 2.56 ± 0.22
SFAQLKNLKWLDLKDNPLDPVLAK [LRRC59] | 2.98 ± 0.096 | 2.96 ± 0.33
AEHEITELTATFTKFDRDGNRILD [PKD2L1] | 4.76 ± 0.24 | 4.95 ± 0.19

Sequence | protein stability index (treatment: DMSO) | protein stability index (treatment: MLN4924 1 uM, 8 h)
KVLIQKNLGPKSKVLILRNHGLVS [ADD1] | 2.08 ± 0.36 | 2.16 ± 0.33
GTDRIVKIWDMTPVVGCSLATGFS [WDFY1] | 2.66 ± 0.16 | 2.79 ± 0.48
LIGGLEAQLSELRCEMEAQNQEYK [KRT15] | 4.1 ± 0.15 | 4.52 ± 0.44
HGNSGHPLVLSYIDLSAWCYYCQA [HDAC6] | 2.73 ± 0.55 | 3.14 ± 0.58
SEIPRGVRVALDYEAGQVTLHNAQ [TRIM15] | 4.45 ± 0.35 | 4.57 ± 0.11
LPFGPFNGTAWTYHSQDELGGFSH [PKD2L1] | 2.41 ± 0.13 | 2.58 ± 0.18
AMELRHQGGEYLPKPEPPQLVLAY [FEM1A] | 2.32 ± 0.33 | 2.38 ± 0.28
VSFLRSGTKLIFRRRPRQKEAGLS [C2CD2L] | 2.75 ± 0.74 | 3.1 ± 0.24
APYAAAAAAQSYPGYLPYSPEPPS [IRX6] | 4.06 ± 0.14 | 4.2 ± 0.15
HRSSRETRDYAPPSRGHAYRDYGH [RBMY1A1] | 3.87 ± 0.18 | 3.92 ± 0.17
EDQKLQVLLTQIESKKHQVETAFE [TRIM15] | 4.29 ± 0.22 | 4.51 ± 0.29
RRSTTDLRGTQFDYERGKGESTED [ZSWIM9] | 5.57 ± 0.17 | 5.53 ± 0.15
IYRHRIPSTICFGQGAARGFKSNK [ZNF511] | 3 ± 0.37 | 3.64 ± 0.13
RKQARQLENELDLKLVSFSKLCTS [GOSR1] | 3.03 ± 0.34 | 3.22 ± 0.54
KLGAPLSGLQGLPECTRCGHGIVG [PDLIM4] | 2.65 ± 0.25 | 2.75 ± 0.36
DLKARIDQNTVVTRQLSEENANLQ [MTUS2] | 4.83 ± 0.14 | 4.93 ± 0.083
LIYDFIEDQGGLEAVRQEMRRQEP [WAS] | 2.55 ± 0.28 | 2.75 ± 0.42
VQKDHENYMKILLKVGGILVMPIE [PCMTD1] | 2.88 ± 0.67 | 2.16 ± 0.48
VLCLLAADEDDDRDVALQIHFTLI [GADD45A] | 3.49 ± 2.2 | 2.15 ± 1
MSDRRENDMSPSNNVVPIHVPPTT [RAB11A] | 4.67 ± 0.17 | 4.87 ± 0.12
KKQDENEGIKVEDLLFIVDTMLEE [CEP70] | 3.25 ± 0.22 | 3.27 ± 0.23
GRVLLANSTQADEGKTKKGVLEAP [FBXO34] | 5.01 ± 0.17 | 4.9 ± 0.13
